Test results published in PMC4351179.

Biological target: human DNA polymerase theta (Polθ), polymerase domain, wild type (human)
Assay: SEC

“human DNA polymerase theta (Polθ), polymerase domain, wild type (domain or fragment)” gave a stoichiometry N of 2.
